In paper PMC6423499 (2019) one finds Ki data, which are given here for one molecule.

For the test, the target named is VHL (VHL/ElonginB/ElonginC, VCB) as used in solution (UniProt P40337 1-213; Q15370 1-104; Q15369 17-112). Description: FP; MZ1 ternary.
Sequence of VHL (VHL/ElonginB/ElonginC, VCB) as used in solution (P40337 whole entry, chain 1 of 3): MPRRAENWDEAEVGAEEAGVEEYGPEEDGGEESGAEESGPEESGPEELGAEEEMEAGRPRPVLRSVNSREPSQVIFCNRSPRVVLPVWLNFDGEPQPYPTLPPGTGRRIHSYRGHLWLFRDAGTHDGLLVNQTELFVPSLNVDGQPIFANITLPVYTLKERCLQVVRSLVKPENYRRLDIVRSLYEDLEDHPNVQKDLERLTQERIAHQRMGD
Sequence of VHL (VHL/ElonginB/ElonginC, VCB) as used in solution (Q15370 1-104, chain 2 of 3): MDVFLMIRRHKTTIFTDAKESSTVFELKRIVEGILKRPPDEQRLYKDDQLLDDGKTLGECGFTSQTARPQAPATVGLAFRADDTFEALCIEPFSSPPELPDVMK
Sequence of VHL (VHL/ElonginB/ElonginC, VCB) as used in solution (Q15369 17-112, chain 3 of 3): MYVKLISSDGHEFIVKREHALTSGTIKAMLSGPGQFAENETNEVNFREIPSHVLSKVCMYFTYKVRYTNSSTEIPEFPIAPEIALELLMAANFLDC

B1: Brd2^BD2 with the G-to-E point mutation at Gly382 (domain or fragment)
chain: GKLSEQLKHCNGILKELLSKKHAAYAWPFYKPVDASALELHDYHDIIKHPMDLSTVKRKMENRDYRDAQEFAADVRLMFSNCYKYNPPDHDVVAMARKLQDVFEFRYAKMPD
For the molecule B1, the Ki came to 6 nM.

As a reminder, the Ki is a dissociation constant, usually derived from enzyme kinetics or from competition with a known ligand. Read a low Ki as higher affinity.
